Tests used:
[1] = system: HeLa Kyoto; assay: solubility in G1/S (NP-40 vs SDS abundance) (log2 ratio); higher = more soluble; conditions: cell cycle stage: G1/S
[2] = system: HeLa Kyoto; assay: thermal stability score vs G1/S (z-score of summed log2 fold changes over temperatures); higher = more thermally stable than in G1/S
[3] = system: HeLa Kyoto; assay: melting temperature (median over replicates), in situ; higher = more thermally stable
[4] = system: HeLa Kyoto; assay: solubility change mitosis vs G1/S (difference of NP-40 vs SDS log2 ratios) (log2 ratio difference); higher = more soluble in mitosis
[5] = cell cycle stage: early G1 (4.5 h after nocodazole release)
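Throughout, for melting temperature (median over replicates), in situ: HeLa Kyoto cells synchronized by double thymidine or nocodazole block, proteins quantified by TMT10plex mass spectrometry, three independent biological replicates.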
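Throughout, for solubility change mitosis vs G1/S (difference of NP-40 vs SDS log2 ratios): synchronized HeLa Kyoto cells (double thymidine block for G1/S, nocodazole release for mitosis), protein amounts in NP-40 versus SDS lysates quantified by mass spectrometry, three biological replicates.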
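Throughout, for solubility in G1/S (NP-40 vs SDS abundance): HeLa Kyoto cells arrested at G1/S by double thymidine block, proteins quantified by TMT10plex mass spectrometry in mild NP-40 versus SDS extracts, three biological replicates.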
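Throughout, for thermal stability score vs G1/S (z-score of summed log2 fold changes over temperatures): synchronized HeLa Kyoto cells, proteins quantified by TMT10plex mass spectrometry, three biological replicates, mitosis taken 0.5 h after nocodazole release, G1/S directly after double thymidine block.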

Sequence	solubility in G1/S (log2) [1]	thermal stability score [2, 5]	thermal stability score ([2]; cell cycle stage: mitosis)	melting temperature ([3]; cell cycle stage: G1/S) [°C]	melting temperature ([3]; cell cycle stage: mitosis) [°C]	solubility change mitosis (log2) [4]
MANNDAVLKRLEQKGAEADQIIEYLKQQVSLLKEKAILQATLREEKKLRVENAKLKKEIEELKQELIQAEIQNGVKQIPFPSGTPLHANSMVSENVIQSTAVTTVSSGTKEQIKGGTGDEKKAKEKIEKKGEKKEKKQQSIAGSADSKPIDVSRLDLRIGCIITARKHPDADSLYVEEVDVGEIAPRTVVSGLVNHVPLEQMQNRMVILLCNLKPAKMRGVLSQAMVMCASSPEKIEILAPPNGSVPGDRITFDAFPGEPDKELNPKKKIWEQIQPDLHTNDECVATYKGVPFEVKGKGVCRAQTMSNSGIK [AIMP1]	0.468	-0.0166	1.24	48.3	49.1	0.02
MANVSKKVSWSGRDRDDEEAAPLLRRTARPGGGTPLLNGAGPGAARQSPRSALFRVGHMSSVELDDELLDPDMDPPHPFPKEIPHNEKLLSLKYESLDYDNSENQLFLEEERRINHTAFRTVEIKRWVICALIGILTGLVACFIDIVVENLAGLKYRVIKGNIDKFTEKGGLSFSLLLWATLNAAFVLVGSVIVAFIEPVAAGSGIPQIKCFLNGVKIPHVVRLKTLVIKVSGVILSVVGGLAVGKEGPMIHSGSVIAAGISQGRSTSLKRDFKIFEYFRRDTEKRDFVSAGAAAGVSAAFGAPVGGVLFSLEEGASFWNQFLTWRIFFASMISTFTLNFVLSIYHGNMWDLSSPGLINFGRFDSEKMAYTIHEIPVFIAMGVVGGVLGAVFNALNYWLTMFRIRYIHRPCLQVIEAVLVAAVTATVAFVLIYSSRDCQPLQGGSMSYPLQLFCADGEYNSMAAAFFNTPEKSVVSLFHDPPGSYNPLTLGLFTLVYFFLACWTYGLTVSAGVFIPSLLIGAAWGRLFGISLSYLTGAAIWADPGKYALMGAAAQLGGIVRMTLSLTVIMMEATSNVTYGFPIMLVLMTAKIVGDVFIEGLYDMHIQLQSVPFLHWEAPVTSHSLTAREVMSTPVTCLRRREKVGVIVDVLSDTASNHNGFPVVEHADDTQPARLQGLILRSQLIVLLKHKVFVERSNLGLVQRRLRLKDFRDAYPRFPPIQSIHVSQDERECTMDLSEFMNPSPYTVPQEASLPRVFKLFRALGLRHLVVVDNRNQVVGLVTRKDLARYRLGKRGLEELSLAQT [CLCN7]	-0.189	0.135	-0.102	52.9	52.6	-0.116
MAPKKRPETQKTSEIVLRPRNKRSRSPLELEPEAKKLCAKGSGPSRRCDSDCLWVGLAGPQILPPCRSIVRTLHQHKLGRASWPSVQQGLQQSFLHTLDSYRILQKAAPFDRRATSLAWHPTHPSTVAVGSKGGDIMLWNFGIKDKPTFIKGIGAGGSITGLKFNPLNTNQFYASSMEGTTRLQDFKGNILRVFASSDTINIWFCSLDVSASSRMVVTGDNVGNVILLNMDGKELWNLRMHKKKVTHVALNPCCDWFLATASVDQTVKIWDLRQVRGKASFLYSLPHRHPVNAACFSPDGARLLTTDQKSEIRVYSASQWDCPLGLIPHPHRHFQHLTPIKAAWHPRYNLIVVGRYPDPNFKSCTPYELRTIDVFDGNSGKMMCQLYDPESSGISSLNEFNPMGDTLASAMGYHILIWSQEEARTRK [DDB2]	-0.0537	-1.8	-2.6	55.7	56.7	-0.078
MAPMGIRLSPLGVAVFCLLGLGVLYHLYSGFLAGRFSLFGLGGEPGGGAAGPAAAADGGTVDLREMLAVSVLAAVRGGDEVRRVRESNVLHEKSKGKTREGAEDKMTSGDVLSNRKMFYLLKTAFPSVQINTEEHVDAADQEVILWDHKIPEDILKEVTTPKEVPAESVTVWIDPLDATQEYTEDLRKYVTTMVCVAVNGKPMLGVIHKPFSEYTAWAMVDGGSNVKARSSYNEKTPRIVVSRSHSGMVKQVALQTFGNQTTIIPAGGAGYKVLALLDVPDKSQEKADLYIHVTYIKKWDICAGNAILKALGGHMTTLSGEEISYTGSDGIEGGLLASIRMNHQALVRKLPDLEKTGHK [IMPAD1]	0.145	0.124	-1.11	59.1	58.9	-0.132
MAPPGSSTVFLLALTIIASTWALTPTHYLTKHDVERLKASLDRPFTNLESAFYSIVGLSSLGAQVPDAKKACTYIRSNLDPSNVDSLFYAAQASQALSGCEISISNETKDLLLAAVSEDSSVTQIYHAVAALSGFGLPLASQEALSALTARLSKEETVLATVQALQTASHLSQQADLRSIVEEIEDLVARLDELGGVYLQFEEGLETTALFVAATYKLMDHVGTEPSIKEDQVIQLMNAIFSKKNFESLSEAFSVASAAAVLSHNRYHVPVVVVPEGSASDTHEQAILRLQVTNVLSQPLTQATVKLEHAKSVASRATVLQKTSFTPVGDVFELNFMNVKFSSGYYDFLVEVEGDNRYIANTVELRVKISTEVGITNVDLSTVDKDQSIAPKTTRVTYPAKAKGTFIADSHQNFALFFQLVDVNTGAELTPHQTFVRLHNQKTGQEVVFVAEPDNKNVYKFELDTSERKIEFDSASGTYTLYLIIGDATLKNPILWNVADVVIKFPEEEAPSTVLSQNLFTPKQEIQHLFREPEKRPPTVVSNTFTALILSPLLLLFALWIRIGANVSNFTFAPSTIIFHLGHAAMLGLMYVYWTQLNMFQTLKYLAILGSVTFLAGNRMLAQQAVKRTAH [RPN2]	0.0246	1.07	2.44	54	53.7	-0.162
MAPQSLPSSRMAPLGMLLGLLMAACFTFCLSHQNLKEFALTNPEKSSTKETERKETKAEEELDAEVLEVFHPTHEWQALQPGQAVPAGSHVRLNLQTGEREAKLQYEDKFRNNLKGKRLDINTNTYTSQDLKSALAKFKEGAEMESSKEDKARQAEVKRLFRPIEELKKDFDELNVVIETDMQIMVRLINKFNSSSSSLEEKIAALFDLEYYVHQMDNAQDLLSFGGLQVVINGLNSTEPLVKEYAAFVLGAAFSSNPKVQVEAIEGGALQKLLVILATEQPLTAKKKVLFALCSLLRHFPYAQRQFLKLGGLQVLRTLVQEKGTEVLAVRVVTLLYDLVTEKMFAEEEAELTQEMSPEKLQQYRQVHLLPGLWEQGWCEITAHLLALPEHDAREKVLQTLGVLLTTCRDRYRQDPQLGRTLASLQAEYQVLASLELQDGEDEGYFQELLGSVNSLLKELR [SIL1]	0.7	-0.386	0.264	53.5	53.4	-0.0794
MAPQVWRRRTLERCLTEVGKATGRPECFLTIQEGLASKFTSLTKVLYDFNKILENGRIHGSPLQKLVIENFDDEQIWQQLELQNEPILQYFQNAVSETINDEDISLLPESEEQEREEDGSEIEADDKEDLEDLEEEEVSDMGNDDPEMGERAENSSKSDLRKSPVFSDEDSDLDFDISKLEQQSKVQNKGQGKPREKSIVDDKFFKLSEMEAYLENIEKEEERKDDNDEEEEDIDFFEDIDSDEDEGGLFGSKKLKSGKSSRNLKYKDFFDPVESDEDITNVHDDELDSNKEDDEIAEEEAEELSISETDEDDDLQENEDNKQHKESLKRVTFALPDDAETEDTGVLNVKKNSDEVKSSFEKRQEKMNEKIASLEKELLEKKPWQLQGEVTAQKRPENSLLEETLHFDHAVRMAPVITEETTLQLEDIIKQRIRDQAWDDVVRKEKPKEDAYEYKKRLTLDHEKSKLSLAEIYEQEYIKLNQQKTAEEENPEHVEIQKMMDSLFLKLDALSNFHFIPKPPVPEIKVVSNLPAITMEEVAPVSVSDAALLAPEEIKEKNKAGDIKTAAEKTATDKKRERRKKKYQKRMKIKEKEKRRKLLEKSSVDQAGKYSKTVASEKLKQLTKTGKASFIKDEGKDKALKSSQAFFSKLQDQVKMQINDAKKTEKKKKKRQDISVHKLKL [MPHOSPH10]	-2.07	3.5	1.06	52.4	52.4	1.06
MAPRLCSISVTARRLLGGPGPRAGDVASAAAARFYSKDNEGSWFRSLFVHKVDPRKDAHSTLLSKKETSNLYKIQFHNVKPEYLDAYNSLTEAVLPKLHLDEDYPCSLVGNWNTWYGEQDQAVHLWRFSGGYPALMDCMNKLKNNKEYLEFRRERSQMLLSRRNQLLLEFSFWNEPQPRMGPNIYELRTYKLKPGTMIEWGNNWARAIKYRQENQEAVGGFFSQIGELYVVHHLWAYKDLQSREETRNAAWRKRGWDENVYYTVPLVRHMESRIMIPLKISPLQ [NIPSNAP1]	0.0548	-0.403	-2.28	53.9	54.3	-0.0766
MAPSSPRPALPALLVLLGALFPGPGNAQTSVSPSKVILPRGGSVLVTCSTSCDQPKLLGIETPLPKKELLLPGNNRKVYELSNVQEDSQPMCYSNCPDGQSTAKTFLTVYWTPERVELAPLPSWQPVGKNLTLRCQVEGGAPRANLTVVLLRGEKELKREPAVGEPAEVTTTVLVRRDHHGANFSCRTELDLRPQGLELFENTSAPYQLQTFVLPATPPQLVSPRVLEVDTQGTVVCSLDGLFPVSEAQVHLALGDQRLNPTVTYGNDSFSAKASVSVTAEDEGTQRLTCAVILGNQSQETLQTVTIYSFPAPNVILTKPEVSEGTEVTVKCEAHPRAKVTLNGVPAQPLGPRAQLLLKATPEDNGRSFSCSATLEVAGQLIHKNQTRELRVLYGPRLDERDCPGNWTWPENSQQTPMCQAWGNPLPELKCLKDGTFPLPIGESVTVTRDLEGTYLCRARSTQGEVTRKVTVNVLSPRYEIVIITVVAAAVIMGTAGLSTYLYNRQRKIKKYRLQQAQKGTPMKPNTQATPP [ICAM1]	0.303	-2.15	-2.19	56.7	58.8	0.0971
MAPVGGGGRPVGGPARGRLLLAAPVLLVLLWALGARGQGSPQQGTIVGMRLASCNKSCGTNPDGIIFVSEGSTVNLRLYGYSLGNISSNLISFTEVDDAETLHKSTSCLELTKDLVVQQLVNVSRGNTSGVLVVLTKFLRRSESMKLYALCTRAQPDGPWLKWTDKDSLLFMVEEPGRFLPLWLHILLITVLLVLSGIFSGLNLGLMALDPMELRIVQNCGTEKERRYARKIEPIRRKGNYLLCSLLLGNVLVNTSLTILLDNLIGSGLMAVASSTIGIVIFGEILPQALCSRHGLAVGANTILLTKFFMLLTFPLSFPISKLLDFFLGQEIRTVYNREKLMEMLKVTEPYNDLVKEELNMIQGALELRTKTVEDIMTQLQDCFMIRSDAILDFNTMSEIMESGYTRIPVFEDEQSNIVDILYVKDLAFVDPDDCTPLKTITRFYNHPVHFVFHDTKLDAMLEEFKKGKSHLAIVQKVNNEGEGDPFYEVLGLVTLEDVIEEIIKSEILDESDMYTDNRSRKRVSEKNKRDFSAFKDADNELKVKISPQLLLAAHRFLATEVSQFSPSLISEKILLRLLKYPDVIQELKFDEHNKYYARHYLYTRNKPADYFILILQGKVEVEAGKENMKFETGAFSYYGTMALTSVPSDRSPAHPTPLSRSASLSYPDRTDVSTAATLAGSSNQFGSSVLGQYISDFSVRALVDLQYIKITRQQYQNGLLASRMENSPQFPIDGCTTHMENLAEKSELPVVDETTTLLNERNSLLHKASHENAI [CNNM4]	-0.12	-0.56	-0.485	51.7	52.1	-0.0459

Reference: the supplement of paper PMC5998384
